Consider 2 molecules from article PMC8409457, “An evolution-inspired strategy to design disulfide-rich peptides tolerant to extensive sequence manipulation†” (Chemical Science, 2021).

One experiment addresses T1, streptavidin (UniProt P22629 25-183).
T1 construct: streptavidin, model target; Source may be told in the ESI
Description: SPR; binding of peptide to streptavidin. The conditions noted are these: both partners purified.

The target in another experiment is T2, MDM2 (UniProt Q00987 1-491).
T2 construct: MDM2, the protein target of pb13
Description: fluorescence polarisation; competition assay on MDM2 (reported assay, ref. 17); peptides purified by HPLC to >95%; tracer not named. The following applies: both partners purified. For orientation: Polarisation of emitted light reports the rotation of a fluorescent probe.

Bridges are numbered along the chain shown (N, C = ends). Where no end group is shown, it is not given here.

T2 sequence (Q00987 whole entry): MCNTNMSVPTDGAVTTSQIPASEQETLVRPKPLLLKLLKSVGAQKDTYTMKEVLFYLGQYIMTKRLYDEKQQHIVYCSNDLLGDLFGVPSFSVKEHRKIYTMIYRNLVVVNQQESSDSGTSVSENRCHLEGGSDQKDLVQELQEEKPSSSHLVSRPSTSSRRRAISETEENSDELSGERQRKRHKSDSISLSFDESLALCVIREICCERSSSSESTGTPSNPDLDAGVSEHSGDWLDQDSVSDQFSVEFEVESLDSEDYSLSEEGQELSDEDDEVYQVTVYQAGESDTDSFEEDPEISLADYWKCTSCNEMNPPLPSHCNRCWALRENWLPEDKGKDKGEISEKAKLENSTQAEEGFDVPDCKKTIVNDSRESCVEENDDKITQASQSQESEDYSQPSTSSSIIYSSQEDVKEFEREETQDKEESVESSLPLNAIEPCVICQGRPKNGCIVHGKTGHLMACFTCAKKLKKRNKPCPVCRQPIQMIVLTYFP
T1 sequence (P22629 25-183): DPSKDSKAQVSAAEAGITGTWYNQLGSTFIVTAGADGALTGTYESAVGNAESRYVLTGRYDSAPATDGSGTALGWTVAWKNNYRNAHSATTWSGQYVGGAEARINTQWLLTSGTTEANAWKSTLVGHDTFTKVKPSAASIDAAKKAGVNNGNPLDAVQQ

B1: tricyclic peptide 17 (peptide)
chain: GCGSDEACFCPCSHPENCPMAQHC
modifications: disulfide (positions not given here)
With B1, the dissociation constant Kd in the experiment with streptavidin came to 38 nM.

B2: oxidized peptide 15 (peptide)
chain: GCEKATESESPCPCIFPELCPWIVCC
modifications: disulfide 12-25, 14-20, 2-26
The molecule B2 came in with a Ki in the experiment with MDM2 of 89 nM.

One may read the Kd as the equilibrium constant for the complex coming apart. In general, Ki refers to a measure of affinity in units of concentration, obtained from inhibition or displacement. Low readings indicate a stronger hold on the target, high ones a looser hold on the target.
